# Assay results reported in patent US11994512B2, “Single-cell genomic methods to generate ex vivo cell systems that recapitulate in vivo biology with improved fidelity” (Massachusetts Institute of Technology, priority 2018, dated 2024).
# B1: P55050 (protein, UniProt P55050 1-132, looked up)
# chain: MAFDGTWKVDRNENYEKFMEKMGINVMKRKLGAHDNLKLTITQDGNKFTVKESSNFRNIDVVFELGVNFPYSLADGTELTGAWTIEGNKLIGKFTRVDNGKELIAVREVSGNELIQTYTYEGVEAKRFFKKE
# modifications: full-length
# B2: P56395 (protein, UniProt P56395 1-134, looked up)
# chain: MAGQSDKDVKYYTLEEIQKHKDSKSTWVILHHKVYDLTKFLEEHPGGEEVLREQAGGDATENFEDVGHSTDARELSKTYIIGELHPDDRSKIAKPSDTLITTVESNSSWWTNWVIPAISALAVALMYRLYMAED
# modifications: full-length
# B3: P51162 (protein, UniProt P51162 1-128, looked up)
# chain: MAFSGKYEFESEKNYDEFMKRLGLPGDVIERGRNFKIITEVQQDGQDFTWSQSYSGGNIMSNKFTIGKECEMQTMGGKKFKATVKMEGGKVVAEFPNYHQTSEVVGDKLVEISTIGDVTYERVSKRLA
# modifications: full-length
# B4: P50431 (protein, UniProt P50431 1-478, looked up)
# chain: MADRDATLWASHEKMLSQPLKDSDAEVYSIIKKESNRQRVGLELIASENFASRAVLEALGSCLNNKYSEGYPGQRYYGGTEFIDELEMLCQKRALQAYHLDPQCWGVNVQPYSGSPANFAVYTALVEPHGRIMGLDLPDGGHLTHGFMTDKKKISATSIFFESMPYKVYPETGYINYDQLEENASLFHPKLIIAGTSCYSRNLDYARLRKIADDNGAYLMADMAHISGLVAAGVVPSPFEHCHVVTTTTHKTLRGCRAGMIFYRKGVRSVDPKTGKETYYELESLINSAVFPGLQGGPHNHAIAGVAVALKQAMTTEFKIYQLQVLANCRALSDALTELGYKIVTGGSDNHLILMDLRSKGTDGGRAEKVLEACSIACNKNTCPGDKSALRPSGLRLGTPALTSRGLLEEDFQKVAHFIHRGIELTLQIQSHMATKATLKEFKEKLAGDEKIQSAVATLREEVENFASNFSLPGLPDF
# modifications: full-length
# B5: P56695 (protein, UniProt P56695 1-890, looked up)
# chain: MNSGTPPPSPSGPPPPPAPQPQARARLNATASLEQDKIEPPRAPRPQADPSAGRSAGEAAAPEPRAPQTGSREETDRAGPMKADVEIPFEEVLEKAKAGDPKAQTEVGKHYLRLANDADEELNSCSAVAWLILAAKQGRREAVKLLRRCLADRKGITSENEAEVKQLSSETDLERAVRKAALVMYWKLNPKKKKQVAVSELLENVGQVNEQDGGAQPGPVPKSLQKQRRMLERLVSSESKNYIALDDFVELTKKYAKGIIPTNLFLQDEDEDEDELAGKSPEDLPLRQKVVKYPLHAIMEIKEYLIDVASKAGMHWLSTIVPTHHINALIFFFIISNLTIDFFAFFIPLVVFYLSFVSMVICTLKVFQDSKAWENFRTLTDLLLRFEPNLDVEQAEVNFGWNHLEPYIHFLLSVVFVIFSFPLASKDCIPCSELAVISTFFTVTSYMSLSSSAEPYTRRALVTEVAAGLLSLLPTVPVDWRFLKVLGQTFFTVPVGHFIILNVSLPCLLYVYLFYLFFRMAQLRNFKGTYCYLVPYLVCFMWCELSVVILLQSTGLGLVRASIGYFLFLFALPILVAGLALMGTVQFARWFLSLDLTKIMVTTVICGVPLLFRWWTKANFSVMGMVKSLTKSSMVKLILVWLTAILLFCWFYVYRSEGMKVYNSTLTWQQYGFLCGPRAWKETNMARTQILCSHLEGHRVTWTGRFKYVRVTEIDNSAESAINMLPFFLGDWMRCLYGEAYPSCSSGNTSTAEEELCRLKQLAKHPCHIKKFDRYKFEITVGMPFGTNGNRGHEEDDITKDIVLRASSEFKDVLLNLRQGSLIEFSTILEGRLGSKWPVFELKAISCLNCMTQLSPARRHVKIEQDWRSTVHGALKFAFDFFFFPFLSAA
# modifications: full-length
# B6: P50543 (protein, UniProt P50543 1-98, looked up)
# chain: MPTETERCIESLIAVFQKYSGKDGNNTQLSKTEFLSFMNTELAAFTKNQKDPGVLDRMMKKLDLNCDGQLDFQEFLNLIGGLAIACHDSFIQTSQKRI
# modifications: full-length
# B7: P51432 (protein, UniProt P51432 1-1234, looked up)
# chain: MAGARPGVHALQLEPPTVVETLRRGSKFIKWDEEASSRNLVTLRVDPNGFFLYWTGPNMEVDTLDISSIRDTRTGRYARLPKDPKIREVLGFGGPDTRLEEKLMTVVAGPDPVNTTFLNFMAVQDDTVKVWSEELFKLAMNILAQNASRNTFLRKAYTKLKLQVNQDGRIPVKNILKMFSADKKRVETALESCGLNFNRSESIRPDEFPLEIFERFLNKLCLRPDIDKILLEIGAKGKPYLTLEQLMDFINQKQRDPRLNEVLYPPLRSSQARLLIEKYETNKQFLERDQMSMEGFSRYLGGEENGILPLEALDLSMDMTQPLSAYFINSSHNTYLTAGQLAGPSSVEMYRQALLWGCRCVELDVWKGRPPEEEPFITHGFTMTTEVPLRDVLEAIAEAAFKTSPYPVILSFENHVDSAKQQAKMAEYCRSIFGDALLIDPLDKYPLSAGIPLPSPQDLMGRILVKNKKRHRPSTGVPDSSVRKRPLEQSNSALSESSAATEPSSPQLGSPSSDSCPGLSNGEEVGLEKTSLEPQKSLGEESLSREPNVPMPDRDREDEEEDEEEEETTDPKKPTTDEGTASSEVNATEEMSTLVNYVEPVKFKSFEAARKRNKCFEMSSFVETKAMEQLTKSPMEFVEYNKQQLSRIYPKGTRVDSSNYMPQLFWNVGCQLVALNFQTLDLPMQLNAGVFEYNGRSGYLLKPEFMRRPDKSFDPFTEVIVDGIVANALRVKVISGQFLSDKKVGIYVEVDMFGLPVDTRRKYRTRTSQGNSFNPVWDEEPFDFPKVVLPTLASLRIAAFEEGGKFVGHRILPVSAIRSGYHYVCLRNEANQPLCLPALLIYTEASDYIPDDHQDYAEALINPIKHVSLMDQRAKQLAALIGESEAQASTETYQETPCQQPGSQLPSNPTPNPLDASPRWPPGPTTSSTSSSLSSPGQRDDLIASILSEVTPTPLEELRSHKAMVKLRSRQDRDLRELHKKHQRKAVALTRRLLDGLAQARAEGKCRPSPSALGKATNSEDVKEEEEAKQYREFQNRQVQSLLELREAQADVETKRKLEHLRQAHQRLKEVVLDTHTTQFKRLKELNEREKKELQKILDRKRNNSISEAKTREKHKKEVELTEINRRHITESVNSIRRLEEAQKQRHERLVAGQQQVLQQLEEEEPKLLAQLTQECQEQRERLPQEIRRCLLGETAEGLGDGPLVACASNGHAPGSGGHLSSADSESQEENTQL
# modifications: full-length
# B8: P52792 (protein, UniProt P52792 1-465, looked up)
# chain: MLDDRARMEATKKEKVEQILAEFQLQEEDLKKVMSRMQKEMDRGLKLETHQEASVKMLPTYVRSTPEGSEVGDFLSLDLGGTNFRVMLVKVGEGEAGQWSVKTKHQMYSIPEDAMTGTAEMLFDYISECISDFLDKHQMKHKKLPLGFTFSFPVRHEDIDKGILLNWTKGFKASGAEGNNIVGLLRDAIKRRGDFEMDVVAMVNDTVATMISCYYEDRQCEVGMIVGTGCNACYMEEMQNVELVEGDEGRMCVNTEWGAFGNSGELDEFLLEYDRMVDESSVNPGQQLYEKIIGGKYMGELVRLVLLKLVEENLLFHGEASEQLRTRGAFETRFVSQVESDSGDRRQILNILSTLGLRPSVADCDIVRRACESVSTRAAHMCSAGLAGVINRMRESRSEDVMRITVGVDGSVYKLHPSFKERFHASVRRLTPNCEITFIESEEGSGRGAALVSAVACKKACMLGQ
# modifications: full-length
# B9: P60824 (protein, UniProt P60824 1-172, looked up)
# chain: MASDEGKLFVGGLSFDTNEQALEQVFSKYGQISEVVVVKDRETQRSRGFGFVTFENIDDAKDAMMAMNGKSVDGRQIRVDQAGKSSDNRSRGYRGGSAGGRGFFRGGRSRGRGFSRGGGDRGYGGGRFESRSGGYGGSRDYYASRSQGGSYGYRSSGGSYRDSYDSYATHNE
# modifications: full-length
# B10: P52800 (protein, UniProt P52800 1-336, looked up)
# chain: MAMARSRRDSVWKYCWGLLMVLCRTAISRSIVLEPIYWNSSNSKFLPGQGLVLYPQIGDKLDIICPKVDSKTVGQYEYYKVYMVDKDQADRCTIKKENTPLLNCARPDQDVKFTIKFQEFSPNLWGLEFQKNKDYYIISTSNGSLEGLDNQEGGVCQTRAMKILMKVGQDASSAGSARNHGPTRRPELEAGTNGRSSTTSPFVKPNPGSSTDGNSAGHSGNNLLGSEVALFAGIASGCIIFIVIIITLVVLLLKYRRRHRKHSPQHTTTLSLSTLATPKRGGNNNGSEPSDVIIPLRTADSVFCPHYEKVSGDYGHPVYIVQEMPPQSPANIYYKV
# modifications: full-length
# Tested on: intracellular proteome of ENR+CD and ENR organoids
# Experiment: LC-MS/MS TMT proteomics of ENR+CD versus ENR organoids
# Type: cell-based, C57BL/6 mice
# Conditions: for Average logFC / M1-1 Log2 Median Normalized / M1-2 Log2 Median Normalized / M2-1 Log2 Median Normalized / M2-2 Log2 Median Normalized: protein abundance, ENR+CD versus ENR organoids; for Average logFC: aggregate of the four sample pairs; for M1-1 Log2 Median Normalized: replicate M1-1; for M1-1 Log2 Median Normalized / M1-2 Log2 Median Normalized / M2-1 Log2 Median Normalized / M2-2 Log2 Median Normalized: log2 ratio; for M1-2 Log2 Median Normalized: replicate M1-2; for M2-1 Log2 Median Normalized: replicate M2-1; for M2-2 Log2 Median Normalized: replicate M2-2; for change: up = enriched in ENR+CD, down = enriched in ENR, FDR<0.05 and log fold change cut-off
Molecule,Average logFC,M1-1 Log2 Median Normalized,M1-2 Log2 Median Normalized,M2-1 Log2 Median Normalized,M2-2 Log2 Median Normalized,change
B1,−1.721,−1.558,−2.656,−2.1955,−0.474,down
B2,−1.382,−1.162,−0.964,−1.6925,−1.71,down
B3,−1.573,−0.519,−1.799,−2.7635,−1.209,down
B4,−1.162,−1.382,−1,−1.1875,−1.08,down
B5,1.149,1.527,0.901,0.7335,1.433,up
B6,1.372,1.371,1.475,1.4645,0.855,up
B7,−1.187,−1.261,−1.255,−1.1345,−1.096,down
B8,1.166,1.847,0.711,1.3025,0.805,up
B9,1.155,0.902,1.138,1.3145,1.267,up
B10,−1.24,−0.883,−1.258,−1.7545,−1.065,down
